Data as given in patent publication US20210330692, “CCR7 APTAMERS AND USES THEREOF” (CITY OF HOPE, published 2021).

Molecular target: CCR7 (UniProt P32248 P32248:25-378)
Test: EMSA; + in gel shift assay

Sequence of CCR7 (P32248 25-378, one chain of several): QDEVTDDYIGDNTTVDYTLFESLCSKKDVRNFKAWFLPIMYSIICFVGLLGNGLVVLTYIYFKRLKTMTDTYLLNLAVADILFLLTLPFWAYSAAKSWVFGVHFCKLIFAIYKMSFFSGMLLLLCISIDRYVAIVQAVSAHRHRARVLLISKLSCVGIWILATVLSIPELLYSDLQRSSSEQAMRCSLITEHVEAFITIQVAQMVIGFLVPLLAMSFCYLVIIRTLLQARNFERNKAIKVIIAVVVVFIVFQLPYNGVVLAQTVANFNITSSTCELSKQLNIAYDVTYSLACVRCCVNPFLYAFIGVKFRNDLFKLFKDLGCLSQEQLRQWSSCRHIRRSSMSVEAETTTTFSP

B1: C-6 (ssRNA)
RNA: GGGAGGACGAUGCGGUCCAUCGUCUCUUAUCGUCUCUUGUCGCGCCAGACGACUCGCCCGA
Question: Does B1 bind?
Answer: binds
